The data set deals with the molecule itself. The experiment in a line: cryo-EM structure of the self-assembled fiber (subunit to subunit).

B1: Ena1B-HI-Rubredoxin (other)
chain: MGNCSTNLSCCANGQKTIVQDKVCIDWTAAATAAIIYADNISQDIYASGYLKVDTGTGPVTIVFYSGGVTGTAVETIVVATGSSASFTVRRFDTVTILGGGKYVCTVCGYEYDPAEGDPDNGVKPGTSFDDLPADWVCPVCGAPKSEFEAAGAAETGEFCMTIRYTLS
notes: It was made in E. coli and studied as a self-assembled helical fiber of many identical subunits; The rubredoxin centre carried mostly zinc and some iron; also called Ena-HI-Rubredoxin; Ena1B-Rubredoxin-HI
With B1, the binding result is given as “binds”.

The record behind these values is patent US20260139013A1 (VIB VZW, published 2026).
